Measured values as given in IntAct's records for PubMed 16824107.

B1: Cytochrome c biogenesis ATP-binding export protein CcmA (Escherichia coli (strain K12)), P33931 (parent)
chain: MGMLEARELLCERDERTLFSGLSFTLNAGEWVQITGSNGAGKTTLLRLLTGLSRPDAGEVLWQGQPLHQVRDSYHQNLLWIGHQPGIKTRLTALENLHFYHRDGDTAQCLEALAQAGLAGFEDIPVNQLSAGQQRRVALARLWLTRATLWILDEPFTAIDVNGVDRLTQRMAQHTEQGGIVILTTHQPLNVAESKIRRISLTQTRAA
partner: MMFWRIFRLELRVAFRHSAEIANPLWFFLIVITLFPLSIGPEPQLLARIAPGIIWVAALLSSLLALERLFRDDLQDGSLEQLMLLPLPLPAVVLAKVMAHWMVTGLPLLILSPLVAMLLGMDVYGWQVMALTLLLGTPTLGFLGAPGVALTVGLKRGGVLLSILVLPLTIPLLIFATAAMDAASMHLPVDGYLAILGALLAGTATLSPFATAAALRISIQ
B2: Cytochrome c biogenesis ATP-binding export protein CcmA (Escherichia coli (strain K12)), P33931 (parent)
chain: B1 chain
partner: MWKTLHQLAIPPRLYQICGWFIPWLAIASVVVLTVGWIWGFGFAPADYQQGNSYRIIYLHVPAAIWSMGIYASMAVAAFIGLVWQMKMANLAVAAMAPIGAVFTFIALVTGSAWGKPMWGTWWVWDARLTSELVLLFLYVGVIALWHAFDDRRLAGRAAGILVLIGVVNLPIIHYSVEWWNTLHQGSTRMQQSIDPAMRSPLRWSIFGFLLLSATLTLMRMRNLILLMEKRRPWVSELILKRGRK

Variants of: B1
Conditions: with ccmb_ecoli ccmB

effect of a mutation on the interaction	Variant
with no effect	G132A

Variants of: B2
Conditions: with ccmc_ecoli ccmC

effect of a mutation on the interaction	Variant
with no effect	G132A
